Results: the nanobody polyreactivity screen of Harvey et al. (2022)

Assay: yeast display, Sf9 membrane polyspecificity reagent, FACS + sequencing; frameworks hold sequencing errors
In short: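 Sorting gates, low and high (top ~1%), were placed on anti-HA fluorescence to track expression and on streptavidin fluorescence to track reagent binding. A clone's polyreactivity label is taken from the gate it came out of. The reagent was 10% biotinylated, detergent-solubilized Sf9 membrane, applied for 1 hour at 4 °C to galactose-induced yeast display cells.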
In the case of “QVQLVESGGGLVQAGGSLRLSCAASGSTFYLYDMGWYRQAPGKEREMVAAISWSSGSTYYADSVKGRFTISRDNAKNTVYLQMNSLKPEETAVYYCAAGPSDTEYWLFDYWGQGTQVTVSS”, the “polyreactivity (PSR sort gate)” value is reported as “high polyreactivity”. For “QVQLVESGGGLVQAGGSLRLSCAASGSTFYNNAMGWYRQAPGKERELVAAITRTGGRTYYADSVKGRFTISRDNAKNTVYLQMNSLKPEDTAVYYCAALRYGQGSISAFDYWGQGTQVTVSS”, the “polyreactivity (PSR sort gate)” value was “high polyreactivity”. For “QVQLVESGGGLVQAGGSLRLSCAASGSTFYNYALGWYRQAPGKERELVAAIRRSGGSTYYADSVKGRFTISRDNAKNTVYFQMNSLKPEDTAVYYCAASYYTRGYWGQGTQVTVSS”, the “polyreactivity (PSR sort gate)” value was “high polyreactivity”. With “QVQLVESGGGLVQAGGSLRLSCAASGSTFYPKAKAWNRQAPGKERELVAGISSGGGTYYADSVKGRFTISRDNAKNTVYLQMNSLKREDTAVYYCNAYFLSSSLDYWGQGTQVTVSS” the “polyreactivity (PSR sort gate)” value was “low polyreactivity”. For “QVQLVESGGGLVQAGGSLRLSCAASGSTFYPNAMGWSRQAPGKERELVAAISRGTRTKYADSVKGRFTISRDNAKNTVYLQMKSLKPEDTAVYYCAADTGTGLDWGQGTQVTVSS”, the “polyreactivity (PSR sort gate)” value was “high polyreactivity”. With “QVQLVESGGGLVQAGGSLRLSCAASGSTFYPNAMGWYRQAPGKERELVARISGRGGRTYYADSVKGRFTISRDNAKNTVYLLMNSLKPEDTAVYYCSKDPSSDLDYDYWGQGTQVTVSS” the “polyreactivity (PSR sort gate)” value was “low polyreactivity”. For “QVQLVESGGGLVQAGGSLRLSCAASGSTFYPNPMGWYRQAPGKERELVAAISQRGGRTYYADSVKGRFTISRDNAKNTVYLQMNSLKPEDTAVYYCAATYQGYNSWYSFGYWGQGTQVTVSS”, the “polyreactivity (PSR sort gate)” value was “high polyreactivity”. For “QVQLVESGGGLVQAGGSLRLSCAASGSTFYPYAMGWYRQAPGKERELVAAISSRDGRTYYADSVKGRFTISRDNAKNTVYLQMNSLKPEDTAVYYCAAVRALRKVRDYYYWGQGTQVTVSS”, the “polyreactivity (PSR sort gate)” value was “high polyreactivity”. For “QVQLVESGGGLVQAGGSLRLSCAASGSTFYPYAMGWYRQAPGKEWEFVADITKRGGSTYYADSVKGRFTISRDNAKNTVYLQMNSLKPEDTAVYYCNAYNYDLVYPQYDYWGQGTQVTVSS”, the “polyreactivity (PSR sort gate)” value was “low polyreactivity”. For “QVQLVESGGGLVQAGGSLRLSCAASGSTFYQNAMGWYRQAPGKERELVAAISRSGGGTYYADSVKGRFTISRDNAKNTVYLQMNSLKPEDTAVYYCAVRPTYNSWTRSTSRYYYWGQGTQVTVSS”, the “polyreactivity (PSR sort gate)” value was “high polyreactivity”. With “QVQLVESGGGLVQAGGSLRLSCAASGSTFYQNAMGWYRQAPGKERELVAAISSRGGSTYYADSVKGRFTISRDNAKNTVYLQMNSLKPEDTAVYYCNTGRGSEMDYWGQGTQVTVSS” the “polyreactivity (PSR sort gate)” value was “high polyreactivity”. With “QVQLVESGGGLVQAGGSLRLSCAASGSTFYQNAMGWYRQAPGKERELVAAISSSGRTYYADSVKGRFTISRDNAKNTVYLQMNSLKPEDTAVYYCAVGAYGSLYSIRVAYGSMDYWGQGTQVTVSS” the “polyreactivity (PSR sort gate)” value was “high polyreactivity”. In the case of “QVQLVESGGGLVQAGGSLRLSCAASGSTFYQYAMGWYRQAPGKERELVAAISKSGGSTYYADSVKGRFTISRDYSKNTVYLQMNSLKPDDTSVYYCATRWIKGRKMDYWGQGTQVTVSS”, the “polyreactivity (PSR sort gate)” value is reported as “high polyreactivity”. In the case of “QVQLVESGGGLVQAGGSLRLSCAASGSTFYQYVMGWYRQAPGKERELVAAISGSGGSTYYADSVKGRFTISRDNAKTTVYLQMNSLKPEDTAVYYCAAVGRSKRDGYWGQGTQVTVSS”, the “polyreactivity (PSR sort gate)” value is reported as “high polyreactivity”. With “QVQLVESGGGLVQAGGSLRLSCAASGSTFYRNAMGWYRQAPGKEREFVATINRGGSTYYADSVKGRFTISRDNAKNTVYLQMNSLKPEDTAVYYCNAKYKQRHGYSAVTSYATYDYWGQGTQVTVSS” the “polyreactivity (PSR sort gate)” value was “high polyreactivity”. With “QVQLVESGGGLVQAGGSLRLSCAASGSTFYRNAMGWYRQAPGKERELVATITFNGGSTYYADSVKGRFTISRDNAKNTVYLQMNSLKPEDTAVYYCAKSHAIYYWWDESWGQGTQVTVSS” the “polyreactivity (PSR sort gate)” value was “low polyreactivity”. In the case of “QVQLVESGGGLVQAGGSLRLSCAASGSTFYRNGMGWYRQAPGKERELVAGIDRSGGSTYYADSVKGRFTISRDNAKNTVYLQMNSLKPEDTAVYYCAAQNGYYPQHDYWGQGTQVTVSS”, the “polyreactivity (PSR sort gate)” value is reported as “high polyreactivity”. In the case of “QVQLVESGGGLVQAGGSLRLSCAASGSTFYRYAMGWYRQAPGKEREFVAAITGSGGRTYYADSVKGRFTISRDNAKNTVYLQMNSLKPEDTAVYYCAARYYYFYQISYRYDYWGQGTQVTVSS”, the “polyreactivity (PSR sort gate)” value is reported as “high polyreactivity”. For “QVQLVESGGGLVQAGGSLRLSCAASGSTFYRYAMGWYRQAPGKERELVAAIRGSGGRTYYADSVKGRFTISRDNAKNTVYLQMNSLKPEDTAVYYCAAYRGVSQKGDYWGEGTQVTVSS”, the “polyreactivity (PSR sort gate)” value was “high polyreactivity”. With “QVQLVESGGGLVQAGGSLRLSCAASGSTFYRYAMGWYRQAPGKERELVAAISTRSGSTYYADSVKGRFTISRDNAKNTVYLQMNSLKPEDTAVYYCAADGHKKTARKYYYWGQGTQVTVSS” the “polyreactivity (PSR sort gate)” value was “low polyreactivity”. For “QVQLVESGGGLVQAGGSLRLSCAASGSTFYRYAMGWYRQAPGKERELVAAITSAGSTNYADSVKGRFTISRDNGNNTVYLQMYSLKPVDTAVYYCAADHGRPYFSYDYWGQGSQVTVSS”, the “polyreactivity (PSR sort gate)” value was “low polyreactivity”. For “QVQLVESGGGLVQAGGSLRLSCAASGSTFYRYAMGWYRQAPGKERELVATISWTDGRTNYADSVKGRFTISRDNAKNPVYLQMNSLKPEDTAVYDCAARRYRRWYDYWGQGTQVTVSS”, the “polyreactivity (PSR sort gate)” value was “high polyreactivity”. With “QVQLVESGGGLVQAGGSLRLSCAASGSTFYRYVMGWYRQAPGKERELVAAISKSDGSTYYADSVKGRFTISRDNAKNTVYLQMNSLIPEDTAVYYCAADGSKWDWWEYEYWGQGTQVTVSS” the “polyreactivity (PSR sort gate)” value was “high polyreactivity”. In the case of “QVQLVESGGGLVQAGGSLRLSCAASGSTFYSNAMGWYRQAPGKERELVAAISSTGSSTYYADSVKGRFTISRDNAKNTVYLQMNSLKPEDTAVYYCATDYYQSYWPATYDYWGQGTQVTVSS”, the “polyreactivity (PSR sort gate)” value is reported as “low polyreactivity”. With “QVQLVESGGGLVQAGGSLRLSCAASGSTFYSNAMGWYRQAPGKERELVATISFRGGRTYYADSVKGRFTISRDNAMNTVYLQMNSLKPEDTAVYYCNAEVSGYPYTYGYRGQGTQVTVSS” the “polyreactivity (PSR sort gate)” value was “low polyreactivity”. With “QVQLVESGGGLVQAGGSLRLSCAASGSTFYSNAMGWYRQAPRKERELVASISWSSGSTYYADSVKGRFTISRDNAKNTVYLQMNSLKPEDTAVYYCATDAGGPYRFGYWGQGTQVTVSS” the “polyreactivity (PSR sort gate)” value was “low polyreactivity”. With “QVQLVESGGGLVQAGGSLRLSCAASGSTFYSNVMGWYRQAPGKEREFVAGISGSGGSTYYADSVKGRFTISRDNAKNTVYLQMNSLKPEDTAVYYCAKYRYSRYFRYDYWGQCTQVTVSS” the “polyreactivity (PSR sort gate)” value was “high polyreactivity”. In the case of “QVQLVESGGGLVQAGGSLRLSCAASGSTFYSNVMGWYRQAPGKERELVAAISQSGGRTFYADSVKGRFTISRDNAKNTVYLQMNSLIPEDTAVYYGNYVRAQPRNPYDYWGQGTQVTVSS”, the “polyreactivity (PSR sort gate)” value is reported as “high polyreactivity”. For “QVQLVESGGGLVQAGGSLRLSCAASGSTFYSYAMGWYRQAPGKERELVAAITTSGGSTYYADSVKGRFTISRDNAKNTVYLQMNSLKPEDTAVYYCAAYDLYWYEYWGQGTQVTVSS”, the “polyreactivity (PSR sort gate)” value was “low polyreactivity”. For “QVQLVESGGGLVQAGGSLRLSCAASGSTFYSYGMGWYRQAPGKERELVAAITEDGDTTYYADSVKGLYTISRDNAKNTVYLQMNSLKPEDTAVYYCAAETYYLDDYWGQATQVTVSS”, the “polyreactivity (PSR sort gate)” value was “high polyreactivity”. For “QVQLVESGGGLVQAGGSLRLSCAASGSTFYSYVMGWYRQAPGKERELVAVITSGGSTTYADSVKGRFTISRDNAKNTVYLQMNSLKPEDTAVYYCAKRNYLSYRYDYWGQGTQVTVSS”, the “polyreactivity (PSR sort gate)” value was “low polyreactivity”. In the case of “QVQLVESGGGLVQAGGSLRLSCAASGSTFYTNAMGWYRQAPGKERELVAAISYGGGSTYYADSVKGRFTISRDNAKNTVYLQMHSLKPEDTAVYYCAARAPEKSWWRYRYGYWGQGTQVTVSS”, the “polyreactivity (PSR sort gate)” value is reported as “high polyreactivity”. With “QVQLVESGGGLVQAGGSLRLSCAASGSTFYTNAMGWYRQAPGKEREMVASITGGGSTYYADSVKGRFTISRDNAKNTVYLQMNSLKPEDTAVYYCDADNVGGGWEFDSWGQGTQVTVSS” the “polyreactivity (PSR sort gate)” value was “low polyreactivity”. In the case of “QVQLVESGGGLVQAGGSLRLSCAASGSTFYTYTMGWYRQAPGKERALVAAISSSGGDTYYADSVKGRFTISRDNAKNTVYLQMNSLKPEDTAVYYCAALGAFPSLEFDYWGQGTQVTVSS”, the “polyreactivity (PSR sort gate)” value is reported as “low polyreactivity”. In the case of “QVQLVESGGGLVQAGGSLRLSCAASGSTFYTYVMGWYRQAPGKERELVAAISSGGGNTYYADSVKGRFTISRDNAKYTVYLQMNSLKPEDTAVYYCAASHTSYYLRYGYWGQGTQVTVSS”, the “polyreactivity (PSR sort gate)” value is reported as “high polyreactivity”. For “QVQLVESGGGLVQAGGSLRLSCAASGSTFYVNAMGWYRPAPGKERELVAAITKSGGNTYYADSVKGRFTISRDNAKNTVYLQMNSLKPEDTAVYYCAAYKRYSSLTGYESWGQGTQVTVSS”, the “polyreactivity (PSR sort gate)” value was “high polyreactivity”. In the case of “QVQLVESGGGLVQAGGSLRLSCAASGSTFYVNAMGWYRQAPGKEREFVAAISWSGGSTYYADSVKGRFTISRDNAKNTVYLQMNSLKPEDTAVYYCAADRVRKDGVLFDYWGQGTQGTVSS”, the “polyreactivity (PSR sort gate)” value is reported as “high polyreactivity”. In the case of “QVQLVESGGGLVQAGGSLRLSCAASGSTFYVNAMGWYRQAPGKERELVAAINSGGRTYYADSVKGRFTISRDNAKNTVYLQMNSLKPEDTAVYYCAAEVSYYLNEFDYWGQGTQVTVSS”, the “polyreactivity (PSR sort gate)” value is reported as “low polyreactivity”. For “QVQLVESGGGLVQAGGSLRLSCAASGSTFYVYAIGWYRHAPGKERELVADITYSDGGTFYADSVKGRFTISRDNAKTTVYLQMNSLKPEDTAGYYCATSYLWNYRGDIFDYWGQGTQVTVSS”, the “polyreactivity (PSR sort gate)” value was “high polyreactivity”. For “QVQLVESGGGLVQAGGSLRLSCAASGSTFYVYAMGWYRQAPGKERELVAAINFNGGGTYYADSVKGRFTISRDNAMNTVYLQMNSLKPEDTAFYYCNAEDDYTYDRSFGGYKYDYWGQGTQVTVSS”, the “polyreactivity (PSR sort gate)” value was “low polyreactivity”. In the case of “QVQLVESGGGLVQAGGSLRLSCAASGSTFYVYAMGWYRQAPGKERELVATISSGGITNYADSVKGRFTISRDNAMNTVYLQMNSLKPEDTAVYYCNAKKAYYGRGMNYWGQGTQVTVSS”, the “polyreactivity (PSR sort gate)” value is reported as “low polyreactivity”. In the case of “QVQLVESGGGLVQAGGSLRLSCAASGSTFYVYAMGWYRQAPGKERELVAVIRYRGDRTYYADSVKGRFTISRDNAKNTVYLQMNSLKPEDTAVYYCAKEGFYKYYWGQGTQVTVSS”, the “polyreactivity (PSR sort gate)” value is reported as “high polyreactivity”. With “QVQLVESGGGLVQAGGSLRLSCAASGSTFYVYAMGWYRQAPGTERELVAAIDYSDGSTYYADSVKGRFTISRDNAKNTVYLQMNSRKPEDTAVYYCAADTVSWFEYYYWGQGTQVTVSS” the “polyreactivity (PSR sort gate)” value was “high polyreactivity”.
